Measured values as given in article PMC10602907 (2023).
Where two headings read alike, the source gives them in different places.

B1: FgSwc6, 6xHis-tagged recombinant protein (natural protein)
chain: MNNFGVIELASAKTTSAPGWAYVPDNTISRPTAPTNRKRARNVPGLTYSDLTARQDNKIRKEVEALDKDGGKDNTIPLPVKSGRVQGKHTPNVRKILQSQKTFGNHLDDFLAMQALVESNPAISRASGANSKRPSVSRKDTPSSSKPPPDEDTTMTDANLQPLLPEPSRSPPASHPGDYNPLLVSRVPDMPSDEELRRLLAHPPLNYGEATGTRDTKYPARSFCEVCGYWGRVRCMKCGTRVCALDCLEAHKEECVTRYGP
B2: FgUbp8, 6xHis-tagged recombinant protein (natural protein)
chain: MSARPTTPASPKNVRVKSPVPGLPMFGCEHIQLLLSKNQEVMNSSITHYKLILRGIFDATPIVPQTSTLDGRPVTSLTSNYLCLQCPSTVTEEERLRHGTKKQHRFYVDSRSGCLYCQICDDYIWDPTLEELRVRKIGTGSFSGRKRKHDELFTGSFKDDPRFISSNTNTASCRANGLRGIYNAGATCYQNVVLQSFLHNPLLRNFYLSDGHQSSDCQVSHCLSCAMDDMFQDFYALETTNGYTAANILSGFWISEKKAFENLVTTKEQDAHEFFQFLAEELHERNGDGKKPEIGSEHSCNCIMHQTFYGKMQTTTTCQNCSGQSNSIQSFLDLSLGLDNVVQKKSKRTGQKKPTVSLQDCLDEEYIKYDKCEYRCNNCNGTQQAKRHTSIKRLPNVLSIQLKRFEYKHGRHDRAASKVDNEVKFPLQLNMMPYTNRIRNHDSRESLELERSCTYDLLSVVVHVGELDTGHYTSYCRVGDQWFKFNDHKVELASLSDVLGAQAYLLFYIIRSLA

What was measured:
Test in all cases: MST
[1] = target: T1, FgSreA, 6xHis-tagged recombinant protein (Fusarium graminearum PH-1)
[2] = target: T1, FgSreA, 6xHis-tagged recombinant protein; remark: listed apart in the source
[3] = target: FgHapX, 6xHis-tagged recombinant protein (Fusarium graminearum PH-1)

Row | Binder | Kd [1] [µM] | Kd [2] [µM] | Kd [3] [µM]
1 | B1 | 3.04 | 398 | 
2 | B2 |  |  | 1.9
